Experimental data reported in IntAct's records for PubMed 22632968.

B1: SUN domain-containing protein 2 (Homo sapiens), Q9UH99 (parent)
chain: MSRRSQRLTRYSQGDDDGSSSSGGSSVAGSQSTLFKDSPLRTLKRKSSNMKRLSPAPQLGPSSDAHTSYYSESLVHESWFPPRSSLEELHGDANWGEDLRVRRRRGTGGSESSRASGLVGRKATEDFLGSSSGYSSEDDYVGYSDVDQQSSSSRLRSAVSRAGSLLWMVATSPGRLFRLLYWWAGTTWYRLTTAASLLDVFVLTRRFSSLKTFLWFLLPLLLLTCLTYGAWYFYPYGLQTFHPALVSWWAAKDSRRPDEGWEARDSSPHFQAEQRVMSRVHSLERRLEALAAEFSSNWQKEAMRLERLELRQGAPGQGGGGGLSHEDTLALLEGLVSRREAALKEDFRRETAARIQEELSALRAEHQQDSEDLFKKIVRASQESEARIQQLKSEWQSMTQESFQESSVKELRRLEDQLAGLQQELAALALKQSSVAEEVGLLPQQIQAVRDDVESQFPAWISQFLARGGGGRVGLLQREEMQAQLRELESKILTHVAEMQGKSAREAAASLSLTLQKEGVIGVTEEQVHHIVKQALQRYSEDRIGLADYALESGGASVISTRCSETYETKTALLSLFGIPLWYHSQSPRVILQPDVHPGNCWAFQGPQGFAVVRLSARIRPTAVTLEHVPKALSPNSTISSAPKDFAIFGFDEDLQQEGTLLGKFTYDQDGEPIQTFHFQAPTMATYQVVELRILTNWGHPEYTCIYRFRVHGEPAH

Variants of: B1
Details: with syne2_human SYNE2, Q8WXH0

| Variant | effect of a mutation on the interaction |
| --- | --- |
| D542N | decreasing interaction strength |
| L536D | decreasing interaction strength |

Variants of: B1
Details: with syne2_human SYNE2, Q8WXH0
Remark: another data set of the same source

| Variant | effect of a mutation on the interaction |
| --- | --- |
| S641E | disrupting interaction strength |
| H628A | disrupting interaction strength |
